Source: patent US20230159643A1 (H LUNDBECK A S, published 2023)

Key:
[1] = biological target: T1, Sortilin SORTECDBAP_hB06-10 (human/tetraodon chimera); experiment: BLI Octet 384RED (Example 8), Sortilin construct in solution
T1 construct: Shuffle construct
T1 chain: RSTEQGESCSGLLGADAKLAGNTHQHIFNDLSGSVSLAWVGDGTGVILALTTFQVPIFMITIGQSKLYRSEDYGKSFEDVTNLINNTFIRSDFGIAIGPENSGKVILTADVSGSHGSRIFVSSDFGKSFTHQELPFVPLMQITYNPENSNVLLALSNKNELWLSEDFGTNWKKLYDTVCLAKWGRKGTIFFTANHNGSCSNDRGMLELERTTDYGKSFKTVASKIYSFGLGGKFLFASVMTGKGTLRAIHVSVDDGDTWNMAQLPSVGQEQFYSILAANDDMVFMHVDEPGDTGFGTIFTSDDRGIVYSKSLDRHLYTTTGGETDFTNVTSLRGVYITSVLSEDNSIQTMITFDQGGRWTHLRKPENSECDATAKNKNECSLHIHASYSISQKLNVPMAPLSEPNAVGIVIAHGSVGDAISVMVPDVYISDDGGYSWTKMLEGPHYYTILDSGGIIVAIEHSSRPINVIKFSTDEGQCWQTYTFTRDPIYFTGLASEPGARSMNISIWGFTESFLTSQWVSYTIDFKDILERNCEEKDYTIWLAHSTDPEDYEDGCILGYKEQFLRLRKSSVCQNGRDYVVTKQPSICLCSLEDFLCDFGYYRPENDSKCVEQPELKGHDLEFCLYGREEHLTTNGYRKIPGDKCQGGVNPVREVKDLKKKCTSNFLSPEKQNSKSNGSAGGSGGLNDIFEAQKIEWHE
Protocol: (§1) Binding kinetics of anti-Sortilin HuMab antibodies to Sortilin were determined using Octet 384RED (Fortebio, Menlo Park, USA). HuMab solutions of 2 μg/ml were made by dilution in sample diluent (ForteBio, art. No. 18-5028). Prot A sensors (ForteBio, art. no. 18-0004) were prewetted with kinetics buffer (1:10 sample diluent in PBS) for at least 600 seconds. Subsequently sensors were immobilized with HuMab solution for 600 seconds. A baseline response was obtained by dipping in kinetics buffer for 120 seconds. Association of SORTECD constructs was performed during a 1000 seconds incubation. This was followed by dissociation in kinetics buffer for 100 seconds. After dissociation, sensors were regenerated (10 mM Glycine pH 1.0) and neutralized (kinetics buffer) 3 times for 5 seconds. […] A molecular weight of 76.8 kDA was used for SORTECDHis. Data was fitted with ForteBio Analysis 6.4 software, using a global full fit.

[2] = biological target: T2, Sortilin SORTECDBAP_hB45678 (human/tetraodon chimera); experiment: as above
T2 construct: Shuffle construct
T2 chain: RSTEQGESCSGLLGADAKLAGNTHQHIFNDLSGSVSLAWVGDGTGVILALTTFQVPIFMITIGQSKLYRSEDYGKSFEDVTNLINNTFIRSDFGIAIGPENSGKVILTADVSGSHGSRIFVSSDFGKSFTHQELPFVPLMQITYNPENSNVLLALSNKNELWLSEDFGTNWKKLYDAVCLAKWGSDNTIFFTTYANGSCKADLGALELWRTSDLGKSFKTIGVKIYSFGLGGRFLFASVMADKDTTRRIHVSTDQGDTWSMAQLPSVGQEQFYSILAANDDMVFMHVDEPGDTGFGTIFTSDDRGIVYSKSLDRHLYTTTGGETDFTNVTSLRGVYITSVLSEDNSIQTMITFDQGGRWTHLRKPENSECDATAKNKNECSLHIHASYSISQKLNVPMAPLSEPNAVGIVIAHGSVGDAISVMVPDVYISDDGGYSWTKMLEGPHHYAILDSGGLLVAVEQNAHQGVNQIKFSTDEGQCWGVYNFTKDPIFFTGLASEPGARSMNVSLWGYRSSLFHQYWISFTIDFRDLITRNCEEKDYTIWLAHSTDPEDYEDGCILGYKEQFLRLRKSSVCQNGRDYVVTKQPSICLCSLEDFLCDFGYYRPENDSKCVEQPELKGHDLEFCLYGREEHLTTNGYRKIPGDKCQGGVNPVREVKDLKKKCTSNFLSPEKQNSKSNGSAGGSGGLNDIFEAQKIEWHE
Protocol: as §1

[3] = biological target: T3, human wild type Sortilin on S18-HEK cells (human, UniProt Q99523 78-831); experiment: cell-based or functional assay
T3 sequence: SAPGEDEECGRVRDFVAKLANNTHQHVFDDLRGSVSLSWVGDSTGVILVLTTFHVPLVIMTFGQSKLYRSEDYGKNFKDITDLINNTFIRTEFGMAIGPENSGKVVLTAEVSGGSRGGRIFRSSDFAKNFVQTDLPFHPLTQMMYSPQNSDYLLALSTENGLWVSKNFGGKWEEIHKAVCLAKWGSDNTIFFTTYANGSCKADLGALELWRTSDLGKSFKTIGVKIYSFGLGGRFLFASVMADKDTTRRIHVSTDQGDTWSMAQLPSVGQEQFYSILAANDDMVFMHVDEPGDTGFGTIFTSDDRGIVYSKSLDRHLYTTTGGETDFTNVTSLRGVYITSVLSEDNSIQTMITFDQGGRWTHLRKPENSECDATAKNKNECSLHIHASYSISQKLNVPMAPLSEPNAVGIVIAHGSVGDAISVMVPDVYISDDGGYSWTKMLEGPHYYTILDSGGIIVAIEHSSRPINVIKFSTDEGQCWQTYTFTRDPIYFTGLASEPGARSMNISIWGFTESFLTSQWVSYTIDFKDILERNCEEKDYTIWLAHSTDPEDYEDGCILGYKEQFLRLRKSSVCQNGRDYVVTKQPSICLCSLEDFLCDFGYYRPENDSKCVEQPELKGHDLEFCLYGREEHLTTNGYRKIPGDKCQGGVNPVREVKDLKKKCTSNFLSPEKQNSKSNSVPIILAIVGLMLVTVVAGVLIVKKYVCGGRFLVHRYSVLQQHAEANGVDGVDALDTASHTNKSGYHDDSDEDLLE

B1: Antibody 5E1 (antibody, V domains shown)
VH: EVHLVESGGDLVNPGGSLKLSCEASGFIFSIYGMSWVRQTPDKRLEWVAMISSGGIYTQYPDSVKGRFTISRDNAKNTLYLQMSGLKSEDTGTYHCTRHDDSWFAYWGQGTLVTVSA
VL: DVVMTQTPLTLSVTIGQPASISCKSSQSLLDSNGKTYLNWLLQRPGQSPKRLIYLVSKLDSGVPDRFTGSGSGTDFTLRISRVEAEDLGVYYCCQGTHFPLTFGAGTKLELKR
notes: Mouse anti-human Sortilin monoclonal antibody from hybridoma (BALB/c), purified on protein G; Assigned to the D Region; also called 5E1F6; Ab 5E1
- EC50 [1]: 0.72 ng/mL
- binding result [2]: no binding (tested: 10 µg/ml construct)
- extracellular PGRN in medium of Sortilin over-expressing HEK cells (ELISA), % of untreated control [3]: 177%

B2: Antibody 1F2 (antibody, V domains shown)
VH: EVQLVESGGDLVKPGGSLKLSCAASGFTFSSYGMSWVRQTPDKRLEWVAIISSGGSYTHYPDSVKGRFTISRDNAKNTLYLQMSSLKSEDTAMYYCARLCGPLCSGYWGQGTSVTVSS
VL: QAVVTQESALTTSPGETVTLTCRSSTGAVTTSNYANWVQEKPDHLFTGLIGGTNNRAPGVPARFSGSLIGDKAALTITGAQTEDEAIYFCALWYSNHFWVFGGGTKLTVLG
notes: Mouse anti-human Sortilin monoclonal antibody from hybridoma (BALB/c), purified on protein G; Assigned to the D Region; also called 1F2F4; Ab 1F2
- EC50 [1]: 9.6 ng/mL
- binding result [2]: no binding (tested: 10 µg/ml construct)
- extracellular PGRN in medium of Sortilin over-expressing HEK cells (ELISA), % of untreated control [3]: 282%

B3: 1320 (antibody, V domains shown)
VH: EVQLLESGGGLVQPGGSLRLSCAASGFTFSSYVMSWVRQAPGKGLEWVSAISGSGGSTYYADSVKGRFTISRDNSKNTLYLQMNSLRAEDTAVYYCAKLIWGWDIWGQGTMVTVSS
VL: EIVLTQSPATLSLSPGERATLSCRASQSVSSYLAWYQQRPGQAPRLLIYDASNRATGIPARFSGSGSGTDFTLSISSLEPEDFAVYYCQQRTNWSITFGQGTRLEIK
notes: also called IgG1-6003-1320; Antibody 1320
- extracellular PGRN in medium of Sortilin over-expressing HEK cells (ELISA), % of untreated control [3]: 114%
